In publication PMC10191836:

Experiments:
[1] = biological target: fibrillin microfibrils purified from bovine ciliary zonules (bovine (endogenous in ciliary zonule)); experiment: cryo-EM structure; native bovine ciliary zonule microfibrils in 20 mM Tris-HCl, 150 mM NaCl, 2 mM CaCl2 pH 7.4; single-particle reconstruction of bead (9.7 Å) and arm (18.3 Å) regions, C2 symmetry imposed
[2] = biological target: fibrillin microfibrils purified from bovine ciliary zonules (bovine (endogenous in ciliary zonule)); experiment: STEM mass mapping; full-length LTBP-1 incubated with bovine microfibrils at a 2:1 molar ratio for 4 h at 4 °C; mass per microfibril repeat with and without LTBP-1

fibrillin monomers per microfibril repeat (monomers per repeat) [1]	stoichiometry N (LTBP-1 molecules per microfibril repeat) [2]	Substance
8		fibrillin microfibrils purified from bovine ciliary zonules (complex)
	2	full-length human LTBP-1S (short splice form of latent TGFβ-binding protein-1) (natural protein)
